# B1: recombinant calreticulin protein (rCRT) (other)
# chain: EPAVYFKEQFLDGDGWTSRWIESKHKSDFGKFVLSSGKFYGDEEKDKGLQTSQDARFYALSASFEPFSNKGQTLVVQFTVKHEQNIDCGGGYVKLFPNSLDQTDMHGDSEYNIMFGPDICGPGTKKVHVIFNYKGKNVLINKDIRCKDDEFTHLYTLIVRPDNTYEVKIDNSQVESGSLEDDWDFLPPKKIKDPDASKPEDWDERAKIDDPTDSKPEDWDKPEHIPDPDAKKPEDWDEEMDGEWEPPVIQNPEYKGEWKPRQIDNPDYKGTWIHPEIDNPEYSPDPSIYAYDNFGVLGLDLWQVKSGTIFDNFLITNDEAYAEEFGNETWGVTKAAEKQMKDKQDEEQRLKEEEEDKKRKEEEEAEDKEDDEDKDEDEEDEEDKEEDEEEDVPGQAKDEL
# Experiments:
# [1] = molecular target: CRT4LP (PASylated CRT-targeted L-ASNase: CRT4 monobody - L-ASNase - PAS200 tag - His6) (E. coli)
# [2] = molecular target: CRT3LP (PASylated CRT-targeted L-ASNase: CRT3 monobody - L-ASNase - PAS200 tag - His6) (E. coli)
binder,measurement,setting,value
B1,Kd,[1],2.3 nM
same,Kd,[2],2.07 nM

# From patent US20250376507A1 (INDUSTRY FOUNDATION OF CHONNAM NATIONAL UNIVERSITY, published 2025)
